One assay deals with TGF-β1 (UniProt P01137 279-390). The experiment in a line: SPR, Fg β15-66 on the chip, cytokine injected (methods as Example 5), Langmuir fit. As for the experimental part: (§1) Surface plasmon resonance (SPR) was done to quantify the affinity of specific cytokines to TNC III1-5. […] Method: Surface plasmon resonance chips were functionalized with TNC III1-5 or BSA and cytokines were injected over the chips at different concentrations. The chips contained gold with free carboxyl groups that were activated to bind TNC III1-5 in one channel and BSA as a reference protein in another channel. The specific response of a cytokine to TNC III1-5 (in RU) was obtained relative to the response to BSA. Results are depicted in FIG. 5.
Chain of TGF-β1 (P01137 279-390 limits assumed): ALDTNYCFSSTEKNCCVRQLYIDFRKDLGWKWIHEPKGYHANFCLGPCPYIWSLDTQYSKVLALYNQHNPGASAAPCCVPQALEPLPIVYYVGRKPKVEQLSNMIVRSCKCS
(§2) Surface plasmon resonance (SPR) was done to quantify the affinity of specific cytokines to Fg β15-66. […] Method: The methods used above were analogous to those used in Example 5. Fits of the experimental data were made with Langmuir binding kinetics. Results are depicted in FIG. 6.

The target of the next assay is T1, PlGF-2 (UniProt P49763-3 19-170).
T1 sequence (looked up): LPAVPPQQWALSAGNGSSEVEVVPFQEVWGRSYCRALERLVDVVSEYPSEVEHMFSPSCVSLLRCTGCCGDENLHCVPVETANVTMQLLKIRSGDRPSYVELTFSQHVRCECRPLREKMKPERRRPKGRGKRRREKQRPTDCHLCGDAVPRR
The description is as above. As for the experimental part:
as §1, §2

In another assay the target is IGF-BP5 (UniProt P24593 21-272). The description is as above. As for the experimental part: as §1, §2
Chain of IGF-BP5 (P24593 21-272 limits assumed): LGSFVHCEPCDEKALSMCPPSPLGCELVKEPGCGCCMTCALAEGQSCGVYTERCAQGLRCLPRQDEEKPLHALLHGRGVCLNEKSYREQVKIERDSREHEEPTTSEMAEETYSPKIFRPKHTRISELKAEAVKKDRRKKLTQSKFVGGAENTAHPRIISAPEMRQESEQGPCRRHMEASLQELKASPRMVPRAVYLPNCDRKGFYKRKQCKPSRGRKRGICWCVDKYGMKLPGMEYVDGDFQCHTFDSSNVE
The next assay addresses FGF-2 (UniProt P09038 135-288, limits assumed). Described as above. As for the experimental part: as §1, §2
For the next assay, the target named is T2, TGF-β2 (UniProt P61812 303-414).
T2 sequence (looked up): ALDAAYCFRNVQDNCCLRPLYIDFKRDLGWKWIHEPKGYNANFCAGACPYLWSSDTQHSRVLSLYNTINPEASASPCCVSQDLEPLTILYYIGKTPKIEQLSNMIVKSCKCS
The experiment in a line: ELISA: growth factor coated, Fg fragment in solution, A450 (methods analogous to Example 3). As for the experimental part: (§3) ELISA plates were coated with cytokines or BSA and further incubated with TNC III1-5 to analyze binding of TNC III1-5 to a wide variety of cytokines. […] A large amount of heparin (4 μM) impaired binding of TNC III1-5 to these cytokines. Results are depicted in FIG. 3. Method: 50 nM of cytokine was coated for (1 hr, 37° C.). After blocking with 2% BSA (1 hr, RT). 100 nM TNC III1-5 was applied in PBST (0.05% tween, 0.1% bovine serum albumin (BSA)) (1 hr, RT). TNC III1-5 was detected with horseradish peroxidase (HRP)-anti-HIS in PBST (1 hr, RT) and developed with 3,3′,5,5′-tetramethylbenzidine (TMB), a soluble colorimetric HRP […]. Addition of sulfuric acid stop solution changes the color to yellow, enabling accurate measurement of the intensity at 450 nm using a spectrophotometer or plate reader. […] Heparin (4 μM) was added to TNC III1-5 to test the effect of blocking the heparin binding site of TNC III1-5, which has been defined as domain TNC III5 (Weber, Zimmermann, et al., 1995).
(§4) ELISA plates were coated with cytokines or BSA and further incubated with Fg β15-66 to analyze binding of […] to a wide variety of cytokines. […] Results are depicted in FIG. 4. Method: The methods were analogous to those used in Example 3.
(In general: ELISA stands for enzyme-linked immunosorbent assay.)

A further assay addresses T3, BDNF (UniProt P23560 129-247).
T3 construct: also called brain-derived neurotrophic factor
T3 sequence (looked up): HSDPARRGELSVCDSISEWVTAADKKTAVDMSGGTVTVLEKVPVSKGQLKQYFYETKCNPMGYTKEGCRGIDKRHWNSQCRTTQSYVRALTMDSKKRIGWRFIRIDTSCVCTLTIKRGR
The description is as above. The procedure: as §3, §4

For the next assay, the target named is T4, PlGF-1 (UniProt P49763-2 19-149).
T4 sequence (looked up): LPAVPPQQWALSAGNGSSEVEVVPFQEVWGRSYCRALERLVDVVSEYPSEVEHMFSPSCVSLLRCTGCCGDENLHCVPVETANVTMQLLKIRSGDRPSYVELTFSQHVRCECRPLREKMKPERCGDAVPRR
The assay is described as above. As for the experimental part:
as §3, §4

For the next assay, the target named is T5, PDGF-BB (UniProt P01127 82-190).
T5 construct: The name implies a homodimer of B chains
T5 sequence (P01127 82-190 limits assumed): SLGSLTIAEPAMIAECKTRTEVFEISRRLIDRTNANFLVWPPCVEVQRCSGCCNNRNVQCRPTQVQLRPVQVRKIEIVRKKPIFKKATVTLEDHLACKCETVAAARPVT
The assay is described as above. The procedure:
as §3, §4

Another assay deals with IGF-BP3 (UniProt P17936 28-291). Described as above. The procedure:
as §3, §4

The target in a further assay is T6, BSA (bovine, UniProt P02769).
T6 construct: negative control; also called bovine serum albumin
T6 sequence (P02769 25-607 limits assumed): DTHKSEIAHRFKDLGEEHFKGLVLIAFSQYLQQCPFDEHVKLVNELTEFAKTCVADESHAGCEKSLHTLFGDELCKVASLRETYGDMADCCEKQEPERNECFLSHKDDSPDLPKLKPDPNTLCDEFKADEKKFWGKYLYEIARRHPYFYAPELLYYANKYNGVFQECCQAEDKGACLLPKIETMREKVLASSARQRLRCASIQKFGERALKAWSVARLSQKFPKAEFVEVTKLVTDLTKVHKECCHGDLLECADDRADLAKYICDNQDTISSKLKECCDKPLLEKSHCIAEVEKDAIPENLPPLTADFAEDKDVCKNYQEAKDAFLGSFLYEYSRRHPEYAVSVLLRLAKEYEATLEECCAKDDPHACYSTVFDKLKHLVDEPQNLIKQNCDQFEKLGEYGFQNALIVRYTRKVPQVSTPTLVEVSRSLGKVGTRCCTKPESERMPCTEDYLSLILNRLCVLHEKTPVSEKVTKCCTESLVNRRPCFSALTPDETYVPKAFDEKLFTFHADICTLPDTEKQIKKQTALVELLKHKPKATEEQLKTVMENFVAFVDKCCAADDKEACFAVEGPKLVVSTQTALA
The experiment in a line: ELISA: BSA coated as control, Fg fragment in solution, A450 (methods analogous to Example 3). As for the experimental part: as §3, §4

Chain of FGF-2 (P09038 135-288 limits assumed): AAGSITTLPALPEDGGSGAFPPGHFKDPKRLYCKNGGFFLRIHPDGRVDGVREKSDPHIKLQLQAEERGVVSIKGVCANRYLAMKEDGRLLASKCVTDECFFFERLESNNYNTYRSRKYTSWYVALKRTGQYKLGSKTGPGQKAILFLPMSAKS
Chain of IGF-BP3 (P17936 28-291 limits assumed): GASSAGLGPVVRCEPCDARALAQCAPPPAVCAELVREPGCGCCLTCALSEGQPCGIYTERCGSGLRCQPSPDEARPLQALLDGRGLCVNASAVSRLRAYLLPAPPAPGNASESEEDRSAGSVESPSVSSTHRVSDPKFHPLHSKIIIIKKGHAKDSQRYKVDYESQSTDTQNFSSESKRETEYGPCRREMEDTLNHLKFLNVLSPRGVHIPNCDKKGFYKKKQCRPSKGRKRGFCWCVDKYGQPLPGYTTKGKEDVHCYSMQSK

B1: Fg β15-66 (other)
chain: GSNQEQVSPLGHRPLDKKREEAPSLRPAPPPISGGGYRARPAKAAATQKKVERKAPDAGGCGHHHHHH
notes: Made as a GST fusion; GST was cleaved off; also called TG-Fg β15-66; fibrinogen β15-66 domain
Take B1: the dissociation constant (Kd) with TGF-β1 came out at 56.5 nM; in the assay with PlGF-2, 1.9 nM; with IGF-BP5, 19.6 nM; with FGF-2 it was 53 nM. For the same molecule, the binding result with TGF-β2 is on record as “binds”; in the assay with BDNF, “binds”; with PlGF-1 it was “no binding”; with PDGF-BB it was “binds”; with IGF-BP3, “binds”; in the assay with BSA it was “no binding”.

The term Kd denotes the constant that tells how readily two partners part at equilibrium. Low readings indicate higher affinity, high ones lower affinity.

These data come from patent US20140011978A1 (EPFL TTO, published 2014).
